The record followed here is article PMC4580983 (Nature Communications, 2015).

Data set [1] deals with the molecule itself. Description: crystal structure; hPF4 (7 mg/ml) with six-fold molar excess fondaparinux in PBS and 0.3 M NaCl; hanging drop, 16 °C, 2% PEG4000, 17% MPD, 0.1 M sodium acetate pH 5.6; 2.50 Å.
The target in data set [2] is T1, PF4 tetramer (human PF4) (human, UniProt P02776).
T1 construct: platelet factor 4 (PF4), human, wild type, same construct as m1, as the tetramer; Same protein as m1; also called hPF4 tetramer
The data set is described as follows: crystal structure; KKO-Fab (5 mg/ml) mixed with hPF4, on ice overnight; hanging drop, 16 °C, 7% PEG6000, 0.1 M Tris-HCl pH 7.8; 4.10 Å. Particulars: both partners purified.

Data set [3] has as its target T2, wild-type human platelet factor 4 (hPF4) (human, UniProt P02776).
T2 construct: platelet factor 4 (PF4), human, wild type, expressed from plasmid pMT/BiP/V5-His; Probably the mature 70-residue PF4 behind the BiP signal of the vector; also called wtPF4; rPF4
The data set is described as follows: ELISA; Immulon 4 HBX plates coated overnight with PF4 or PF4 mutant at 5 ug/ml, blocked with 1% BSA in PBS; antibody in solution; A405. The note with it: both partners purified. Background: In an ELISA, binding on a coated surface is turned into a signal by an enzyme label.

A word on the stoichiometry N: it is a count of units in the complex or per binding partner.

B1: wild-type human platelet factor 4 (hPF4) (natural protein)
chain: EAEEDGDLQCLCVKTTSQVRPRHITSLEVIKAGPHCPTAQLIATLKNGRKICLDLQAPLYKKIIKKLLES
notes: platelet factor 4 (PF4), human, wild type, expressed from plasmid pMT/BiP/V5-His; Probably the mature 70-residue PF4 behind the BiP signal of the vector; also called wtPF4; rPF4
On to B1, for which, in data set [1], the “stoichiometry N” value stood at 4.

B2: KKO-Fab (Fab fragment of the murine monoclonal HIT-like anti-PF4 antibody KKO) (Fab, V domains shown)
VH: VQLQQSGAELVKPGASVKLSCKASGYTFTNYFIYWVKQRPGQGLEWIGEINPRNGDTDFNEKFESRATLTVDKSSSTAYMQLSSLTSEDSAIYYCTRSPYGNNYGFTYWGQGTLVTVSA
VL: DIQMIQSQKFMSTSVGDRVTVTCKASQNVGTNVAWYQQKPGQSPNALIYSASYRYSGVPDRFTGSGSGTDFTLTITNVQSEDLADYFCQQYNSYPLTFGTGTKLDLK
notes: From murine IgG2b kappa KKO
On to B2, for which the binding result in data set [2] is recorded as “binds”.

B3: KKO (murine anti-human PF4 IgG2bκ monoclonal antibody) (antibody, V domains shown)
VH: VQLQQSGAELVKPGASVKLSCKASGYTFTNYFIYWVKQRPGQGLEWIGEINPRNGDTDFNEKFESRATLTVDKSSSTAYMQLSSLTSEDSAIYYCTRSPYGNNYGFTYWGQGTLVTVSA
VL: DIQMIQSQKFMSTSVGDRVTVTCKASQNVGTNVAWYQQKPGQSPNALIYSASYRYSGVPDRFTGSGSGTDFTLTITNVQSEDLADYFCQQYNSYPLTFGTGTKLDLK
notes: Fab part as the heavy chain of m3 (PDB 4R97, PDB 4R9Y); as the light chain of m3 (PDB 4R97, PDB 4R9Y); IgG2b kappa, whole IgG; also called HIT antibody KKO; HIT-like antibody KKO; source: purified from conditioned PFHM-II media (protein A-agarose); copies: 2 + 2
For B3, the binding result in data set [3] is “binds”.
